Measured values reported in patent publication EP4680648A1 (dated 2026).
Numbering of substitutions follows the chain as printed.

T1: dog HER3 expressed on CHO-S cells (CHO-dHER3 cells) (dog, UniProt P21860 20-1342 (human entry))
T1 chain: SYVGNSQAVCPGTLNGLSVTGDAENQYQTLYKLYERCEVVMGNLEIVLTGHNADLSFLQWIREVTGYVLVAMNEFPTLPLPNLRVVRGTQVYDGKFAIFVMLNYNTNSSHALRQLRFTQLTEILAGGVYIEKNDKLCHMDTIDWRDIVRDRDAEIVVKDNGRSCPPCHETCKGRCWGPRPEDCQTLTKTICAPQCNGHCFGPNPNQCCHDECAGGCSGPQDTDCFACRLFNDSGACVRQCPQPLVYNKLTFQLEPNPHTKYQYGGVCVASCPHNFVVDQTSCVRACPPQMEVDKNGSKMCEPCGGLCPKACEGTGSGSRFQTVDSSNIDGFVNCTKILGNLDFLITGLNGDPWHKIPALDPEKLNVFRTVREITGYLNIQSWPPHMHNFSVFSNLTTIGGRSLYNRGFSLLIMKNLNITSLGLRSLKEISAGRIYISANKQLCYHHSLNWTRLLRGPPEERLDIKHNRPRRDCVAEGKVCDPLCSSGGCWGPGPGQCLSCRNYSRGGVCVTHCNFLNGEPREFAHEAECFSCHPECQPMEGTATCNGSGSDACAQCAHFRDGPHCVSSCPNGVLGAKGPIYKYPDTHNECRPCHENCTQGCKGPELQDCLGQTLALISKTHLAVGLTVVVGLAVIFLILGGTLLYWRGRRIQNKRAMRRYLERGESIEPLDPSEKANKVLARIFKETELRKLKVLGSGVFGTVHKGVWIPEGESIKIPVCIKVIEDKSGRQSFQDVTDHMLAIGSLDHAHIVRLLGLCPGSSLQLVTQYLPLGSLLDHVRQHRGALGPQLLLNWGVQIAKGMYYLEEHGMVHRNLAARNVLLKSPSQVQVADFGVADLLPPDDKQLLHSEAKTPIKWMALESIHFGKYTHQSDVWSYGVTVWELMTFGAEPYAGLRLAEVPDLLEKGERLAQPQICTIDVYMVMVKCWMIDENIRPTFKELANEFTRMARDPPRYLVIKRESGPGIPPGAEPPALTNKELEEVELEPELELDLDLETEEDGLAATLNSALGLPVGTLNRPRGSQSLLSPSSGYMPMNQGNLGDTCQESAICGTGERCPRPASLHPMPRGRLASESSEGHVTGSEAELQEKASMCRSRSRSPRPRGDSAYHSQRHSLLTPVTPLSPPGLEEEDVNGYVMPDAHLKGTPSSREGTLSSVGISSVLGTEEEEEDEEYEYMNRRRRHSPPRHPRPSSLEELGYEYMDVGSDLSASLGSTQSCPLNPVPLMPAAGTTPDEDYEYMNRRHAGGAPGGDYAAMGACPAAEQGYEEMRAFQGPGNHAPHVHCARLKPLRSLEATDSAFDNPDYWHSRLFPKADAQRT

T2: monkey (Macaca fascicularis) HER3 expressed on CHO-S cells (CHO-fasHER3 cells) (monkey (Macaca fascicularis), UniProt P21860 20-643 (human entry))
T2 construct: also called monkey HER3
T2 chain: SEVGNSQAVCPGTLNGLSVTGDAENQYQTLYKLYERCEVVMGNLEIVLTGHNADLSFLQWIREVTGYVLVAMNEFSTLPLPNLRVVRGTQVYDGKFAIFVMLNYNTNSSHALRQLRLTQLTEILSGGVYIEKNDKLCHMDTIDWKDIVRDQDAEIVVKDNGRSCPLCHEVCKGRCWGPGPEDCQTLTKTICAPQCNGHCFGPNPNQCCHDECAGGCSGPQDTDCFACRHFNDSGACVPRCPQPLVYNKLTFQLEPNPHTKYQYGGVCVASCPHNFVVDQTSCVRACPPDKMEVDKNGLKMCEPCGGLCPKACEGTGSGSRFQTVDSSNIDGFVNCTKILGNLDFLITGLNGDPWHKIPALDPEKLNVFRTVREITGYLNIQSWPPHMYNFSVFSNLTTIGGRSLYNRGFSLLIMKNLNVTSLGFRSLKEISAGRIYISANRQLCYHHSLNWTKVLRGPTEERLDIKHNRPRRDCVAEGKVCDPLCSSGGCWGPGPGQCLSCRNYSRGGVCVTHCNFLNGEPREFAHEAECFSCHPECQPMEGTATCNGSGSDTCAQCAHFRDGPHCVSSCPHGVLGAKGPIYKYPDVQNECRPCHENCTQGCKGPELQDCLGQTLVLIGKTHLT

B1: anti-HER3 antibody 1D6 (antibody, human IgG1, V domains shown)
VH: EVQLVQSGPGLVKPSETLSLTCTVSGGSISSNNYYWAWIRQPPGKGLEWIGSLYYTGRAYYKSSLKSRVTISVDTSNDQFSLRLTSVTAADTAIYYCARHDCGNTCLNWFDRWGQGTLVTVSS
VL: not shown
notes: common light chain
B2: anti-HER3 antibody 1C5 (antibody, human IgG1, V domains shown)
VH: QVQLVESGGGVVQPGKSLRLSCAASGFTFSRSGMHWVRQAPGKGLEWVALISFDGSNKYYADSVKGRFTISRDNSKNTLNLQMNSLRAEDTAVYYCAKGGFGVVIYDAFDIWGHGTMVTVSS
VL: not shown
notes: common light chain
B3: anti-HER3 antibody 3G6 (antibody, human IgG1, V domains shown)
VH: QVQLVQSGPVLVKPTETLTLTCTVSGFSLSNIRMGVSWIRQPPGKALEWLAHIFSNDDKSYSTSLKSRLTISKDTSKSQVVLTMTNVDPVDTATYYCTRMRYSGGPFDYWGQGTLVTVSS
VL: not shown
notes: common light chain
B4: anti-HER3 antibody 3E1 (antibody, human IgG1, V domains shown)
VH: B3 VH with Q1E, V12A, T63P, S67N, N86T, V87M, V90M, R101K
VL: not shown
notes: common light chain
B5: anti-HER3 antibody 1B2 (antibody, V domains shown)
VH: B3 VH with G26T, I32A, T63P, S78T, V87M, T98S, T114S
VL: not shown
notes: common light chain

Molecular target: T1, dog HER3 expressed on CHO-S cells …
Assay: flow cytometry on CHO-dHER3 cells

Binding result, binds:
B1
B2
B3
B4
B5

Molecular target: human HER3 expressed on CHO-S cells (CHO-hHER3 cells) (human, UniProt P21860 20-643)
Assay: flow cytometry on CHO-hHER3 cells

Binding result, binds:
B1
B2
B3
B4
B5

Molecular target: mouse HER3 expressed on CHO-S cells (CHO-mHER3 cells) (mouse, UniProt Q61526 20-641)
Sequence (Q61526 20-641): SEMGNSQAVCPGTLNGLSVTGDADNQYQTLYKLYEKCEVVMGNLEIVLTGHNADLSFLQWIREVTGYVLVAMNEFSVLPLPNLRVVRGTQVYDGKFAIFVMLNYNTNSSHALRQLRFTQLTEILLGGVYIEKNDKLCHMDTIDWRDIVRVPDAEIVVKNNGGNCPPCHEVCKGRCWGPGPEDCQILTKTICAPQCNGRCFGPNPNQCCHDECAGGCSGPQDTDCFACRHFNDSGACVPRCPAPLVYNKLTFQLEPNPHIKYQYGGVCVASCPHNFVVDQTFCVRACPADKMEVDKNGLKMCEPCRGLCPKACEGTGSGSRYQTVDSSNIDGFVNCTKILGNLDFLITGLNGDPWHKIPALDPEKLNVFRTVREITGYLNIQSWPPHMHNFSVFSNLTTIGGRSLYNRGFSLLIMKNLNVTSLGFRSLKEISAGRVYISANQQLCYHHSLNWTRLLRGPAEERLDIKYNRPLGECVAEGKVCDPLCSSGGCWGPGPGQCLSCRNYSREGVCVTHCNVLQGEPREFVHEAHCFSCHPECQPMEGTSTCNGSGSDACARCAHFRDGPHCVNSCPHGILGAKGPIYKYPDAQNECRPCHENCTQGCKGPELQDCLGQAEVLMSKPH
Assay: flow cytometry on CHO-mHER3 cells

Binding result, binds:
B1
B3
B4
B5

Molecular target: T2, monkey (Macaca fascicularis) HER3 …
Assay: flow cytometry on CHO-fasHER3 cells

Binding result, binds:
B1
B2
B3
B4
B5

Molecular target: T3, His-tagged human HER3 protein (hHER3, ACRO Biosystems Inc., Cat#: ER3-H5223) (human, UniProt P21860 20-643)
T3 construct: Bought protein; also called hHER3-His; not shown: His tag
Assay: SPR (Biacore 8K), antibody captured on Protein A chip, His-tagged HER3 as analyte

Binding result, binds:
B1

Molecular target: T3, His-tagged human HER3 protein (hHER3, …)
Assay: SPR (Biacore 8K), antibody captured on Protein A chip, His-tagged hHER3 as analyte

Binding result, binds:
B2
B3
B4
B5
